These results are taken from patent US9555139B2, “Binding ligand linked drug delivery conjugates of tubulysins” (Endocyte, Inc., priority 2007, dated 2017).

A value given as a limit tells only on which side of the number the result lay.

Data set [1] is described as follows: Serum binding, human serum. It is filed as in vitro ADME. How it is done:
(§1) METHOD: Serum binding against different species. Compounds are tested with 30K NMWL, subjected to Microcon filtration (10,000 g for 30 minutes), and compounds are detected by HPLC.

The nature of another data set: Human serum stability. The class given is in vitro ADME. The source says:
METHOD: Human serum stability.

The nature of data set [2]: Toxicity as measured by weight loss / organ evaluation in tumor-bearing mice. The class given is in vivo. How it is done: METHOD: Drug Toxicity determinations. Persistent drug toxicity was assessed by collecting blood via cardiac puncture and submitting the serum for independent analysis of blood urea nitrogen (BUN), creatinine, total protein, AST-SGOT, ALT-SGPT plus a standard hematological cell panel at Ani-Lytics, Inc. (Gaithersburg, Md.). In addition, histopathologic evaluation of formalin-fixed heart, lungs, liver, spleen, kidney, intestine, skeletal muscle and bone (tibia/fibula) were conducted by board-certified pathologists at Animal Reference Pathology Laboratories (ARUP; Salt Lake City, Utah).
METHOD: Toxicity as Measured by Weight Loss.

Data set [3] can be described thus: Body weight change of Balb/c mice at doses above therapeutic doses (FIG. 14). The following applies: intravenous, three times in one week (FIG. 14). How it is done:
METHOD: Toxicity as Measured by Weight Loss. The percentage weight change of the mice was determined in mice (5 mice/group) on selected days post-tumor inoculation (PTI), and graphed.
Each dose was administered three times, every other day, as indicated by the arrows. EC0305 was administered at (Δ) 2 μmol/kg TIW; (∇) 2.5 μmol/kg TIW; and (□) 3 μmol/kg.

Data set [4] in a line: Serum binding against different species. The class given is in vitro ADME. The conditions noted are these: human, dog, Balb/c mouse, rat, rabbit, fetal calf serum. How it is done:
as §1

The next data set has as its target T1, folate receptors (FRs) (Homo sapiens, UniProt P15328).
T1 construct: FR-positive KB cells were heavily seeded into 24-well cell culture plates; endogenous in cells; host or cells: KB cells
Description: Relative affinity assay (3H-folic acid displacement on KB cells). The following applies: 10% serum/FDRPMI; folic acid set to 1. The class given is binding. How it is done: METHOD: Relative Affinity Assay. The affinity for folate receptors (FRs) relative to folate was determined according to a previously described method (Westerhof, G. R., J. H. Schornagel, et al. (1995) Mol. Pharm. 48: 459-471) with slight modification. Briefly, FR-positive KB cells were heavily seeded into 24-well cell culture plates and allowed to adhere to the plastic for 18 h. Spent incubation media was replaced in designated wells with folate-free RPMI (FFRPMI) supplemented with 100 nM ^3H-folic acid in the absence and presence of increasing concentrations of test article or folic acid. Cells were incubated for 60 min at 37° C. and then rinsed 3 times with PBS, pH 7.4. Five hundred microliters of 1% SDS in PBS, pH 7.4, were added per well. Cell lysates were then collected and added to individual vials containing 5 mL of scintillation cocktail, and then counted for radioactivity. Negative control tubes contained only the ^3H-folic acid in FFRPMI (no competitor). Positive control tubes contained a final concentration of 1 mM folic acid, and CPMs measured in these samples (representing non-specific binding of label) were subtracted from all samples.

The test system of a further data set is s.c. tumors. In words: Inhibition of tumor growth in mice (tumor model not stated, FIG. 9 and 11). The following applies: tolerable and highly toxic dose levels (0.1, 0.2, 0.5 μmol/kg TIW), dosing terminated early. It is filed as in vivo. How it is done: METHOD: Inhibition of Tumor Growth in Mice. Four to seven week-old mice (Balb/c or nu/nu strains) were purchased from Harlan Sprague Dawley, Inc. (Indianapolis, Ind.). Normal rodent chow contains a high concentration of folic acid (6 mg/kg chow); accordingly, mice used were maintained on the folate-free diet (Harlan diet #TD00434) for 1 week before tumor implantation to achieve serum folate concentrations close to the range of normal human serum. For tumor cell inoculation, 1×10^6 M109 cells (Balb/c strain) or 1×10^6 KB cells (nu/nu strain) in 100 μL were injected in the subcutis of the dorsal medial area. Tumors were measured in two perpendicular directions every 2-3 days using a caliper, and their volumes were calculated as 0.5×L×W^2, where L=measurement of longest axis in mm and W=measurement of axis perpendicular to L in mm. […] Dosing solutions were prepared fresh each day in PBS and administered through the lateral tail vein of the mice.

T1 sequence (P15328 25-234): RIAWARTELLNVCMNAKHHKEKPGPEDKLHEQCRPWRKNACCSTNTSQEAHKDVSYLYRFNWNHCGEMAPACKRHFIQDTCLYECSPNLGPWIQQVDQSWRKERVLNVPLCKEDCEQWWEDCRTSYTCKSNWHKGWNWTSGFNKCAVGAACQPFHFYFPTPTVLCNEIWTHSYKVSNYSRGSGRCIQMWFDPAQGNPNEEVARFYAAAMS

In the case of `CCCC(=O)OCN(C(=O)[C@@H](NC(=O)[C@H]1CCCCN1C)C(C)CC)[C@H](C[C@@H](OC(C)=O)c1nc(C(=O)N[C@@H](Cc2ccc(O)cc2)C[C@H](C)C(=O)NNC(=O)OCCSSC[C@H](NC(=O)[C@H](CC(=O)O)NC(=O)[C@H](CCCNC(=N)N)NC(=O)[C@H](CC(=O)O)NC(=O)CC[C@H](NC(=O)c2ccc(NCc3cnc4nc(N)[nH]c(=O)c4n3)cc2)C(=O)O)C(=O)O)cs1)C(C)C` (stereo partly drawn) [EC0305], in data set [1], the fraction unbound was 0.33 and the serum binding came out at 67%. For the same molecule, the half-life in “Human serum stability” was ~20 h. Besides, in data set [2] (Balb/c mice with M109 tumors (FIG. 8)), the “weight loss or major organ tissue degeneration” value is given as “apparent absence of weight loss or major organ tissue degeneration”. The “gross toxicity as determined by changes in weight” value in data set [2] (M109 tumor mice (FIG. 13), 2 μmol/kg TIW, 2 wks) is given as “not accompanied by any observed gross toxicity”. Moreover, in data set [2] (nu/nu mice with KB tumors (FIG. 6)), the “weight loss or major organ tissue degeneration” value is listed as “apparent absence of weight loss or major organ tissue degeneration”. Also, the “dose at which toxicity begins, as determined by changes in weight” value in data set [3] was ≥ 2.5 µmol/kg. The “serum binding in various species” value in data set [4] is reported as “low serum binding”.

`Nc1nc2ncc(CNc3ccc(C(=O)N[C@@H](CCC(=O)O)C(=O)O)cc3)nc2c(=O)[nH]1` [folic acid]: the relative affinity at folate receptors (FRs) was found to be 1.

As to `CCCC(=O)OCN(C(=O)[C@@H](NC(=O)[C@H]1CCCCN1C)C(C)CC)[C@H](C[C@@H](OC(C)=O)c1nc(C(=O)N[C@@H](Cc2ccc(O)cc2)C[C@H](C)C(=O)O)cs1)C(C)C` (stereo partly drawn) [tubulysin B, reference compound], in the data set with s.c. tumors, the “complete or partial responses” value is listed as 0/5. Besides, in data set [2] (FIG. 9 and 10, 0.1, 0.2, 0.5 μmol/kg TIW), the “toxicity (dosing terminated early in each cohort)” value was “excessive toxicity”. The “change in percent body weight” value in data set [2] (FIG. 10, 0.1, 0.2, 0.5 μmol/kg TIW, compared to controls) is listed as “dramatic change”.
